6 molecules from US20100150879A1 (published 2010) can be followed below.

The target in assay [1] is T1, β-catenin, endogenous (human, UniProt P35222 2-781).
T1 construct: Endogenous protein from cell extracts; also called beta-catenin
T1 sequence (looked up): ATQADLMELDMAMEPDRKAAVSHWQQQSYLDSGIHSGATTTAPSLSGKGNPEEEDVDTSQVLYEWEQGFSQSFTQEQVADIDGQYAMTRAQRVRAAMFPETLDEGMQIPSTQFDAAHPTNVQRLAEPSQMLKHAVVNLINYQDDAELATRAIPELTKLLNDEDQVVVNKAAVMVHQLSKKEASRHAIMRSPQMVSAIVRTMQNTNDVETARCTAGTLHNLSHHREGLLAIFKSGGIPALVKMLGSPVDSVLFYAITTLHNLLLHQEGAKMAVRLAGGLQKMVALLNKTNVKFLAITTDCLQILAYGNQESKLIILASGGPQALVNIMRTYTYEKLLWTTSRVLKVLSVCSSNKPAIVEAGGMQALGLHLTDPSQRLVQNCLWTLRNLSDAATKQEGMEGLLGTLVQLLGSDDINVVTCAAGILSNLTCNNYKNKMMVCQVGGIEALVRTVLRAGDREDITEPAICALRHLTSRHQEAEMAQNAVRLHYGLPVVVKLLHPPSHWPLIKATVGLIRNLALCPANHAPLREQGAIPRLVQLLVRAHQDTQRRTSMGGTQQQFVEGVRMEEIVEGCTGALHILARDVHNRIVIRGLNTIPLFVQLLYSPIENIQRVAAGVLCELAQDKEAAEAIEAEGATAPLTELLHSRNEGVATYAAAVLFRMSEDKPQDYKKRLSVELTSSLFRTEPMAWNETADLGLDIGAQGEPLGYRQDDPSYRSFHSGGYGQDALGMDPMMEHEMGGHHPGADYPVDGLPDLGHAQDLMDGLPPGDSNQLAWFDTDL
Description: co-immunoprecipitation from sub-confluent ECs transfected with FLAG-tagged PTEN.
Description: Cell extracts were centrifuged at ˜21,000×g for 30 minutes at 4° C., pre-adsorbed, and immunoprecipitated using specific antibodies. Immune complexes were washed 4-5 times with lysis buffer or with cold immunoprecipitation wash buffer (50 mM HEPES, pH 7.5; 150 mM NaCl; 0.5% NP-40; 1 mM calcium chloride; 1 mM magnesium chloride). SEPHAROSE-bound immune complexes were boiled in 1× Lammeli reducing sample buffer and resolved by SDS-PAGE.
It was initially determined whether PTEN binds to β-catenin in sub-confluent ECs.

Assay [2] deals with T2, p120-catenin (p120ctn), endogenous (human, UniProt O60716 1-968, limits assumed).
T2 construct: Endogenous protein from cell extracts of human cells (hdMVEC, HEK293)
T2 sequence (looked up): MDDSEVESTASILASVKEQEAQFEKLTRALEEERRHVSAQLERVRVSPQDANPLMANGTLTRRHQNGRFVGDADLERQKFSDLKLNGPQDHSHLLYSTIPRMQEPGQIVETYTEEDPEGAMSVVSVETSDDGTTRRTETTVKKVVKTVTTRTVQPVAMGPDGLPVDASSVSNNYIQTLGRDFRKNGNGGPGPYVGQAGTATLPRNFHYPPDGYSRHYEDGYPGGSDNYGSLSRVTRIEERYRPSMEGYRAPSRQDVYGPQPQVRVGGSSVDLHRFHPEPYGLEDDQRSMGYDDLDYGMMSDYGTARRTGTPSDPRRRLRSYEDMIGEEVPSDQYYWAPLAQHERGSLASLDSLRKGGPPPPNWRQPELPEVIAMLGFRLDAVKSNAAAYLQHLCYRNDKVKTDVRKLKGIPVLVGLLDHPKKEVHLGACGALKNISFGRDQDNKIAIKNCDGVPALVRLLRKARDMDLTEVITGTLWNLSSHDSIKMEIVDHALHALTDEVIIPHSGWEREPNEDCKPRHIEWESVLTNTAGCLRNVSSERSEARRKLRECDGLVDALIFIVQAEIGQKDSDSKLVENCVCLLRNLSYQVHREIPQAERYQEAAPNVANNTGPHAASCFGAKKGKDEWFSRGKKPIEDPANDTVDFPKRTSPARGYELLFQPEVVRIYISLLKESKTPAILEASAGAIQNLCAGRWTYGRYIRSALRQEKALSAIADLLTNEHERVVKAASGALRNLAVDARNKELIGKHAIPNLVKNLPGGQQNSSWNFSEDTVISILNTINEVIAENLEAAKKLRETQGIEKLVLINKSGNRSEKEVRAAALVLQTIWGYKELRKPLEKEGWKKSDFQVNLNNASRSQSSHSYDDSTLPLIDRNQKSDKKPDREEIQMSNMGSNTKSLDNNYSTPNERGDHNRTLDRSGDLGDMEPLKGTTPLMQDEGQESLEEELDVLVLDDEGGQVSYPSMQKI
Description: GST pull-down.
Description: Pull-down assays were also carried out with GST-LPP3 fusion proteins. […] In these experiments, each of the membranes was probed for the presence of the GST-fusion protein.

The target of assay [3] is T1, β-catenin, endogenous. Description: immunoprecipitation and western blot, HEK293 cells expressing HA-LPP3. A general note: In western blotting, separated proteins are transferred to a membrane and probed.
Description: (§1) For immunoprecipitation experiments, cells were rinsed with cold phosphate buffered saline (PBS), pH 7.4 and solubilized with complete cell lysis buffer (50 mM HEPES, pH 7.5; 150 mM NaCl; 1% TRITON X-100; 1 mM calcium chloride; 1 mM magnesium chloride; 1 mM sodium orthovanadate; 25 mM sodium fluoride; 1 mM sodium pyrosphosphate; 1 mM phenylmethylsulfonyl fluoride (PMSF); 10 μg/ml aprotinin; 10 μg/ml leupeptin; 1 μg/ml pepstatin-A) or with modified RIPA buffer (20 mM Tris, pH 7.5; 0.1% SDS; 0.25% sodium deoxycholate; 1% TRITON X-100; 150 mM sodium chloride; 1 mM sodium pyrosphosphate; 25 mM sodium fluoride; 1 mM sodium orthovanadate; 5 mM magnesium chloride; 1 mM calcium chloride; 1 μg/ml pepstatin; 1 mM phenylmethylsulfonyl fluoride; 1 μg/ml leupeptin) at 4° C. for 30 minutes. Cell extracts were centrifuged at ˜21,000×g for 30 minutes at 4° C., pre-adsorbed, and immunoprecipitated using specific antibodies. Immune complexes were washed 4-5 times with lysis buffer or with cold immunoprecipitation wash buffer (50 mM HEPES, pH 7.5; 150 mM NaCl; 0.5% NP-40; 1 mM calcium chloride; 1 mM magnesium chloride). SEPHAROSE-bound immune complexes were boiled in 1× Lammeli reducing sample buffer and resolved by SDS-PAGE.
In assay [4] the target is T3, γ-catenin (plakoglobin), endogenous (human, UniProt P14923 1-745).
T3 construct: Endogenous protein from cell extracts; also called gamma-catenin
T3 sequence (looked up): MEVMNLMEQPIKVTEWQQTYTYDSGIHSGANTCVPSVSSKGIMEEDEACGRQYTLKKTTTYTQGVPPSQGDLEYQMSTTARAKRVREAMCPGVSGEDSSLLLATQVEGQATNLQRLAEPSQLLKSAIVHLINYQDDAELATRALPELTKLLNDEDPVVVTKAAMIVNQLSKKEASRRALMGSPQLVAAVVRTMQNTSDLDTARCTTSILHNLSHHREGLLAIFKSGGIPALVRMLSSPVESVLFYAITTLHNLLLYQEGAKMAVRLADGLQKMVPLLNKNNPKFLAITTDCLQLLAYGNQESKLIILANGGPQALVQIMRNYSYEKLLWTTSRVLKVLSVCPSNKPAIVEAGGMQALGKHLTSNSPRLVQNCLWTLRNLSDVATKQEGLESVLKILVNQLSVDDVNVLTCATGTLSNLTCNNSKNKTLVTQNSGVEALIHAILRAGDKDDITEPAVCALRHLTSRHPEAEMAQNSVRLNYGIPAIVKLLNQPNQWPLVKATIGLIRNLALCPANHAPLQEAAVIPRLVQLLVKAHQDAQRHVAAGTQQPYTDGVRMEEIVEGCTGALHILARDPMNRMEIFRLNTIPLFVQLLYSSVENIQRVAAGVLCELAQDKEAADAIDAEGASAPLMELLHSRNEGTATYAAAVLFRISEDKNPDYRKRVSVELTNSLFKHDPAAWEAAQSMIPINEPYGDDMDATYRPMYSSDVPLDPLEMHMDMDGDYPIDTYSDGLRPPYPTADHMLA
The description is as above.
Description: as §1

Assay [5] deals with T1, β-catenin, endogenous. Description: interaction assay in extracts of ECs transfected with LPP3 constructs (method not spelled out).
The target of assay [6] is T1, β-catenin, endogenous. Description: far western, GST-LPP3-C-cyto as bait on blotted immunoprecipitates from hdMVEC.
Assay [7] deals with T3, γ-catenin (plakoglobin), endogenous. Described as above.
The target of assay [8] is T4, VE-cadherin, endogenous in hdMVEC (human, UniProt P33151 48-784).
T4 construct: Endogenous protein from confluent EC extracts
T4 sequence (looked up): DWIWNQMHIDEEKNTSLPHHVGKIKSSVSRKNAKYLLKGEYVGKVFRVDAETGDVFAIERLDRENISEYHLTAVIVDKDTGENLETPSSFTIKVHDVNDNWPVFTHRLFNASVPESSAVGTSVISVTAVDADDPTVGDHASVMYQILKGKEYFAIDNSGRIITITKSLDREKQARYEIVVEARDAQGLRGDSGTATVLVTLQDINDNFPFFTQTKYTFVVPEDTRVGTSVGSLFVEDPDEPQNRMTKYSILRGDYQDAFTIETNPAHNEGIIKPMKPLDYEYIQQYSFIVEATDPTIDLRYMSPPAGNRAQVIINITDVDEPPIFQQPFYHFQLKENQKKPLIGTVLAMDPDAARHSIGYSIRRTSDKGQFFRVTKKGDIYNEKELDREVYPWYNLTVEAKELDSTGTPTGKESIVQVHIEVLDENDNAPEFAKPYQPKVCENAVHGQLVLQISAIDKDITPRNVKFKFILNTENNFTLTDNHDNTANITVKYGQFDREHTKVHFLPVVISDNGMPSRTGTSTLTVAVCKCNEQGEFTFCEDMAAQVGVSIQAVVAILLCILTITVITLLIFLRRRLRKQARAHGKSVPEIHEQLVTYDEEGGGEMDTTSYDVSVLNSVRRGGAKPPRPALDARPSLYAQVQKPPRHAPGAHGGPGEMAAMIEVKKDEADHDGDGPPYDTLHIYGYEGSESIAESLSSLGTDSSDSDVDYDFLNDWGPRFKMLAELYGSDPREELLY
The assay is described as above.

Assay [9] deals with T5, β1-integrin, endogenous in hdMVEC (human, UniProt P05556 21-798).
T5 construct: Immunoprecipitated from hdMVEC extracts and blotted for far western analysis; also called beta1-integrin
The description is as above.

The target in assay [10] is T4, VE-cadherin, endogenous in hdMVEC. Description: co-immunoprecipitation from confluent EC extracts.
Description: Biochemical Experiments. For immunoprecipitation experiments, cells were rinsed with cold phosphate buffered saline (PBS), pH 7.4 and solubilized with complete cell lysis buffer (50 mM HEPES, pH 7.5; 150 mM NaCl; 1% TRITON X-100; 1 mM calcium chloride; 1 mM magnesium chloride; 1 mM sodium orthovanadate; 25 mM sodium fluoride; 1 mM sodium pyrosphosphate; 1 mM phenylmethylsulfonyl fluoride (PMSF); 10 μg/ml aprotinin; 10 μg/ml leupeptin; 1 μg/ml pepstatin-A) or with modified RIPA buffer (20 mM Tris, pH 7.5; 0.1% SDS; 0.25% sodium deoxycholate; 1% TRITON X-100; 150 mM sodium chloride; 1 mM sodium pyrosphosphate; 25 mM sodium fluoride; 1 mM sodium orthovanadate; 5 mM magnesium chloride; 1 mM calcium chloride; 1 μg/ml pepstatin; 1 mM phenylmethylsulfonyl fluoride; 1 μg/ml leupeptin) at 4° C. for 30 minutes. Cell extracts were centrifuged at ˜21,000×g for 30 minutes at 4° C., pre-adsorbed, and immunoprecipitated using specific antibodies. Immune complexes were washed 4-5 times with lysis buffer or with cold immunoprecipitation wash buffer (50 mM HEPES, pH 7.5; 150 mM NaCl; 0.5% NP-40; 1 mM calcium chloride; 1 mM magnesium chloride). SEPHAROSE-bound immune complexes were boiled in 1× Lammeli reducing sample buffer and resolved by SDS-PAGE. […]

No end group written: not given here.

T5 sequence (P05556 21-798): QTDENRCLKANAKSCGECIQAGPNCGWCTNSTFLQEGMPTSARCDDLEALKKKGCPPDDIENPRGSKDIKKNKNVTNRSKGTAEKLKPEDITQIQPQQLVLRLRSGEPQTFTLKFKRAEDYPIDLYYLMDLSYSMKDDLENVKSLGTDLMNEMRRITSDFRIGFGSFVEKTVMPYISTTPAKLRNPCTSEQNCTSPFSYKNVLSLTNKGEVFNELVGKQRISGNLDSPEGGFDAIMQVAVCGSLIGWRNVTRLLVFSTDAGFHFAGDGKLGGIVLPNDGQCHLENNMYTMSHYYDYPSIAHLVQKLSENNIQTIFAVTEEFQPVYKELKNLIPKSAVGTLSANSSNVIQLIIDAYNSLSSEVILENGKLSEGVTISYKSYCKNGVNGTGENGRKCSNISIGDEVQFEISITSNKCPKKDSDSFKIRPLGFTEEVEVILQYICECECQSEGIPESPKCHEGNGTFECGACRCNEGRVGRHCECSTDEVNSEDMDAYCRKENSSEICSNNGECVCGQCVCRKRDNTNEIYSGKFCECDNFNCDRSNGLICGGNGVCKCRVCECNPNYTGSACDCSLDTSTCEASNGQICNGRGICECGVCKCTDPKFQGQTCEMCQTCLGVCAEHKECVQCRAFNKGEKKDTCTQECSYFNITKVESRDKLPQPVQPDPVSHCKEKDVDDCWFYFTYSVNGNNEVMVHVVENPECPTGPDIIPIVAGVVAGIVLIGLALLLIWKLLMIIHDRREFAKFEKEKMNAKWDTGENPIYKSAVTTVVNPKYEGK

B1: FLAG-tagged wild-type PTEN (enzyme)
chain: not shown
notes: Gift construct, transfected into sub-confluent ECs; also called WT-PTEN; not shown: FLAG tag
Consider B1, for which, in the assay with β-catenin, endogenous [1], the binding result is recorded as “no binding”.

B2: GST-N-cyto fusion protein (GST fused to the N-terminal cytoplasmic domain of LPP3) (other)
chain: QNYKYDKAIVPESKNGGSPALNNNPRRSGSK
notes: Expressed in E. coli; not shown: glutathione-S-transferase (GST)
Take B2: the binding result in assay [2] is on record as “no binding”.

B3: HA-tagged human wild-type LPP3 (pLNCX2-HA-WT-hLPP3) (enzyme)
chain: YPYDVPDYAYPYDVPDYAYPYDVPDYAMQNYKYDKAIVPESKNGGSPALNNNPRRSGSKRVLLICLDLFCLFMAGLPFLIIETSTIKPYHRGFYCNDESIKYPLKTGETINDAVLCAVGIVIAILAIITGEFYRIYYLKKSRSTIQNPYVAALYKQVGCFLFGCAISQSFTDIAKVSIGRLRPHFLSVCNPDFSQINCSEGYIQNYRCRGDDSKVQEARKSFFSGHASFSMYTMLYLVLYLQARFTWRGARLLRPLLQFTLIMMAFYTGLSRVSDHKHHPSDVLAGFAQGALVACCIVFFVSDLFKTKTTLSLPAPAIRKEILSPVDIIDRNNHHNMM
notes: whole, on cells; Three copies of the HA tag are fused in-frame at the N-terminus; also called HA-LPP3
With B3, the binding result in the assay with β-catenin, endogenous [3] was “no binding”; in assay [4] it was “no binding”.

B4: Lymphoid Enhancer Binding Factor 1 (LEF-1), endogenous in hdMVEC (other, human, UniProt Q9UJU2 1-399, looked up)
chain: MPQLSGGGGGGGGDPELCATDEMIPFKDEGDPQKEKIFAEISHPEEEGDLADIKSSLVNESEIIPASNGHEVARQAQTSQEPYHDKAREHPDDGKHPDGGLYNKGPSYSSYSGYIMMPNMNNDPYMSNGSLSPPIPRTSNKVPVVQPSHAVHPLTPLITYSDEHFSPGSHPSHIPSDVNSKQGMSRHPPAPDIPTFYPLSPGGVGQITPPLGWQGQPVYPITGGFRQPYPSSLSVDTSMSRFSHHMIPGPPGPHTTGIPHPAIVTPQVKQEHPHTDSDLMHVKPQHEQRKEQEPKRPHIKKPLNAFMLYMKEMRANVVAECTLKESAAINQILGRRWHALSREEQAKYYELARKERQLHMQLYPGWSARDNYGKKKKRKREKLQESASGTGPRMTAAYI
notes: Endogenous protein from EC extracts
For B4, the binding result with β-catenin, endogenous [5] is listed as “binds”.

B5: GST-LPP3-C-cyto fusion protein (GST fused to the C-terminal cytoplasmic domain of LPP3) (other)
chain: SDLFKTKMTLSLPAPAIRKEILSPVDIIDRNNHHNMM
modifications: also: fused to glutathione-S-transferase (GST), linker not given here
notes: Expressed in E. coli; ran at 32 kDa; also called GST-C-cyto; GST-CC; not shown: glutathione-S-transferase (GST)
For B5, the binding result is reported as “no binding (tested: 2.0 µg/ml)” with β-catenin, endogenous [6]; “no binding (tested: 2.0 µg/ml)” in assay [7]; “no binding (tested: 2.0 µg/ml)” in assay [8]; “no binding (tested: 2.0 µg/ml)” in [9].

B6: Lipid Phosphate Phosphatase-3 (LPP3), endogenous in human dermal microvascular endothelial cells (enzyme, UniProt O14495 1-311, looked up)
chain: MQNYKYDKAIVPESKNGGSPALNNNPRRSGSKRVLLICLDLFCLFMAGLPFLIIETSTIKPYHRGFYCNDESIKYPLKTGETINDAVLCAVGIVIAILAIITGEFYRIYYLKKSRSTIQNPYVAALYKQVGCFLFGCAISQSFTDIAKVSIGRLRPHFLSVCNPDFSQINCSEGYIQNYRCRGDDSKVQEARKSFFSGHASFSMYTMLYLVLYLQARFTWRGARLLRPLLQFTLIMMAFYTGLSRVSDHKHHPSDVLAGFAQGALVACCIVFFVSDLFKTKTTLSLPAPAIRKEILSPVDIIDRNNHHNMM
notes: Endogenous protein immunoprecipitated from hdMVEC lysates; also called phosphatidic acid phosphatase-2b; PAP2b
As for B6, the binding result in assay [10] is given as “no binding”.
